The values that follow are results of earlier work, collected in patent publication US20260125483A1, “COMPOSITIONS OF IL-6/IL-6R ANTIBODIES AND METHODS OF USE THEREOF” (Tiziana Life Sciences PLC, priority 2020, published 2026).

This series addresses IL-6Rc (Homo sapiens, UniProt P05231+P08887). The note with it: binding to gp130 to induce the signaling cascade; WO/2009/140348.

Where a chain is given by its changes, count along the chain named.

Chain of IL-6Rc (P08887 20-468): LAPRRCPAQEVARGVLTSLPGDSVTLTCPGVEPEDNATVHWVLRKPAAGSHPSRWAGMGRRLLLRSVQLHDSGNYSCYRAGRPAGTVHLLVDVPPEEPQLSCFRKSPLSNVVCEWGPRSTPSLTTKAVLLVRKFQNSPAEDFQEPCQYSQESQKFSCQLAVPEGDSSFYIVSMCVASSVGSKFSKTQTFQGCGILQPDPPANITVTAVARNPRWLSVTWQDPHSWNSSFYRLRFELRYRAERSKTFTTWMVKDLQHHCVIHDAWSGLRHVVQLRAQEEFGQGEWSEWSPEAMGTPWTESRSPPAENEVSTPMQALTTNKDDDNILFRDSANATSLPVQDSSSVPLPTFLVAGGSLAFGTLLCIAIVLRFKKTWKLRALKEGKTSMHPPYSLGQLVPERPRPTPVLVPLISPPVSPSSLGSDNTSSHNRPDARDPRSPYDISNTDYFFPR
Chain of IL-6Rc (P05231 30-212): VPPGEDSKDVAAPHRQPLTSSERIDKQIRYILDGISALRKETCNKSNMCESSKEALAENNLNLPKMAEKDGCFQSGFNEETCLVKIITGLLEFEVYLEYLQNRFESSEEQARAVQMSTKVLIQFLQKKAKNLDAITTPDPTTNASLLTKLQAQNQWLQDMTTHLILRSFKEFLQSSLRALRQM

B1: 39B9 VL1: IL-6R antibody, heavy chain variable region SEQ ID NO:2, light chain variable region SEQ ID NO: 4 (antibody, V domains shown)
VH: QVQLVQSGAEVKKPGSSVKVSCKASGGTFSSYAISWVRQAPGQGLEWMGGIIPLFDTTKYAQQFQGRVTITADESTSTAYMELSSLRSEDTAVFYCARDRDILTDYYPMGGMDVWGQGTTVTVSS
VL: AIQLTQSPSSLSASVGDRVTITCRASQGISSVLAWYQQKPGKAPKLLIYDASSLESGVPSRFSGSGSGTDFTLTISSLQPEDFATYYCQQSNSYPLTFGGGTKVEIKR
modifications: 3B9 VL1-VH amino acid sequence; 39B9 VL1-VL amino acid sequence
B1: the “functional activity of IL-6Rc in vitro” value is “inhibit the functional activity of IL-6Rc”.

B2: 39B9 VL5: IL-6R antibody, heavy chain variable region SEQ ID NO:2, light chain variable region SEQ ID NO: 6 (antibody, V domains shown)
VH: B1 VH
VL: B1 VL with A1D, Q3L, L4M, G28D, V32W
modifications: 3B9 VL1-VH amino acid sequence; 39B9 VL5-VL amino acid sequence
For B2, the “functional activity of IL-6Rc in vitro” value is given as “inhibit the functional activity of IL-6Rc”.

B3: 12A: IL-6R antibody, heavy chain variable region SEQ ID NO:8, light chain variable region SEQ ID NO: 10 (antibody, V domains shown)
VH: QVQLVESWGGVVQPGRSLRLSCAASGFTFSNYDMYWVRQAPGKGLEWVAVILDDGNNNYYADSVKGRFTISRDNSKKKVYLQMNSLRAEDTAVYYCVRASPNWGLLDFWGQGTLVTVSS
VL: B1 VL with A1E, Q3V, V32W, S91F, L96I, G100Q, K103R, V104L
modifications: 12A VH amino acid sequence; 12A VL amino acid sequence
Take B3: the “functional activity of IL-6Rc in vitro” value is “inhibit the functional activity of IL-6Rc”.

B4: 5C: IL-6R antibody, heavy chain variable region SEQ ID NO: 12, light chain variable region SEQ ID NO: 14 (antibody, V domains shown)
VH: B3 VH with E6Q, W8G, T28I, N31S, D53Y, N58K, K77N, K78T, L106F
VL: B1 VL with A1D, L4M, V32D, I48M, S91F, L96I, G100Q, K103R, V104L
modifications: 5C VH amino acid sequence; 5C VL amino acid sequence
On to B4, for which the “functional activity of IL-6Rc in vitro” value was “inhibit the functional activity of IL-6Rc”.
